What was measured:
Hck (2PA-YEEI) [1] = molecular target: Hck (2PA-YEEI) (UniProt P08631)
Hck (2PA-YEEI) [2] = molecular target: Hck (2PA-YEEI) (UniProt P08631); assay: SPR; Hck (2PA-YEEI) amine-coupled (EDC/NHS) to a CMD 500 carboxymethyl dextran chip, 6053 RU, BIAcore 2000; Csk, Chk, Chk mutants and chimera as analytes in HBS (10 mM HEPES pH 7.4, 150 mM NaCl, 3.4 mM EDTA, 0.005% Tween 20); global fit to a 1 to 1 model with mass transfer; molecular binding activity from the maximum response

inhibition of the kinase activity of Hck (2PA-YEEI) (0.5 μM) on the cdc2 (6-20) peptide after pre-incubation with Chk; more than 60% at 1.5 μM, up to 8.3 μM Chk (Hck (2PA-YEEI) [1]): 80%
Kd (Hck (2PA-YEEI) [2]): 64 nM
koff (Hck (2PA-YEEI) [2]): 0.000272 s⁻¹
kon (Hck (2PA-YEEI) [2]): 4250 M⁻¹ s⁻¹
molecular binding activity (MBA) at 2.2 μM Chk (Hck (2PA-YEEI) [2]; scale: mol of analyte bound per mol of immobilized Hck): 0.46
B1: Csk-homologous kinase (Chk), recombinant wild type (enzyme)
chain: MQGHFPAERREGRPRRGTRGQQQLLVSPRFLRAWHPPPVSARMPTRRWAPGTQCITKCEHTRPKPGELAFRKGDVVTILEACENKSWYRVKHHTSGQEGLLAAGALREREALSADPKLSLMPWFHGKISGQEAVQQLQPPEDGLFLVRESARHPGDYVLCVSFGRDVIHYRVLHRDGHLTIDEAVFFCNLMDMVEHYSKDKGAICTKLVRPKRKHGTKSAEEELARAGWLLNLQHLTLGAQIGEGEFGAVLQGEYLGQKVAVKNIKCDVTAQAFLDETAVMTKMQHENLVRLLGVILHQGLYIVMEHVSKGNLVNFLRTRGRALVNTAQLLQFSLHVAEGMEYLESKKLVHRDLAARNILVSEDLVAKVSDFGLAKAERKGLDSSRLPVKWTAPEALKHGKFTSKSDVWSFGVLLWEVFSYGRAPYPKMSLKEVSEAVEKGYRMEPPEGCPGPVHVLMSSCWEAEPARRPPFRKLAEKLARELRSAGAPASVSGQDADGSTSPRSQEP

— PMC5547543
